B1: POU domain, class 3, transcription factor 2, residues 262 to 338; numbered along this chain, P20265 (parent)
chain: EDTPTSDDLEQFAKQFKQRRIKLGFTQADVGLALGTLYGNVFSQTTICRFEALQLSFKNMCKLKPLLNKWLEEADSS

The record followed here is the Human Domainome abundance scans (Beltran et al. 2025).

± gives the uncertainty stated by the source.

The data set covers variants of B1. The experiment in a line: abundance fitness (aPCA) (normalised: wild type 0, dead -1); higher = more abundant; growth selection in yeast, the domain comes from the species named. The following applies: Homo sapiens.
Consider EDTPTSDDLEQFAKQFKQRRIKLGFTQADVGLALGTLYGNVFSQTTICRFEALQLSFGNMCKLKPLLNKWLEEADSS [K58G], for which the abundance fitness is -0.033 ± 0.029. EDTPTSDDLEQFAKQFKQRRIKLGFTQADVGLALGTLYGNVFSQTTICRFEALQLSFCNMCKLKPLLNKWLEEADSS [K58C]: the abundance fitness was -0.321 ± 0.096. The result for EDTPTSDDLEQFAKQFKQRRIKLGFTQADVGLALGTLYGNVFSQTTICRFEALQLSFRNMCKLKPLLNKWLEEADSS [K58R] reads -0.058 ± 0.031; that for EDTPTSDDLEQFAKQFKQRRIKLGFTQADVGLALGTLYGNVFSQTTICRFEALQLSFNNMCKLKPLLNKWLEEADSS [K58N], 0.039 ± 0.18. The result for EDTPTSDDLEQFAKQFKQRRIKLGFTQADVGLALGTLYGNVFSQTTICRFEALQLSFQNMCKLKPLLNKWLEEADSS [K58Q] reads 0.024 ± 0.042; that for EDTPTSDDLEQFAKQFKQRRIKLGFTQADVGLALGTLYGNVFSQTTICRFEALQLSFLNMCKLKPLLNKWLEEADSS [K58L], -0.163 ± 0.042; that for EDTPTSDDLEQFAKQFKQRRIKLGFTQADVGLALGTLYGNVFSQTTICRFEALQLSFENMCKLKPLLNKWLEEADSS [K58E], 0.069 ± 0.039. Next, EDTPTSDDLEQFAKQFKQRRIKLGFTQADVGLALGTLYGNVFSQTTICRFEALQLSFHNMCKLKPLLNKWLEEADSS [K58H]: -0.486 ± 0.26; EDTPTSDDLEQFAKQFKQRRIKLGFTQADVGLALGTLYGNVFSQTTICRFEALQLSFWNMCKLKPLLNKWLEEADSS [K58W]: -0.235 ± 0.044; EDTPTSDDLEQFAKQFKQRRIKLGFTQADVGLALGTLYGNVFSQTTICRFEALQLSFANMCKLKPLLNKWLEEADSS [K58A]: -0.042 ± 0.036.

As for EDTPTSDDLEQFAKQFKQRRIKLGFTQADVGLALGTLYGNVFSQTTICRFEALQLSFSNMCKLKPLLNKWLEEADSS [K58S], the abundance fitness was -0.053 ± 0.051. The result for EDTPTSDDLEQFAKQFKQRRIKLGFTQADVGLALGTLYGNVFSQTTICRFEALQLSFMNMCKLKPLLNKWLEEADSS [K58M] reads -0.12 ± 0.055. Next, EDTPTSDDLEQFAKQFKQRRIKLGFTQADVGLALGTLYGNVFSQTTICRFEALQLSFFNMCKLKPLLNKWLEEADSS [K58F]: -0.163 ± 0.15. As to EDTPTSDDLEQFAKQFKQRRIKLGFTQADVGLALGTLYGNVFSQTTICRFEALQWSFKNMCKLKPLLNKWLEEADSS [L55W], the abundance fitness is -0.645 ± 0.043. The result for EDTPTSDDLEQFAKQFKQRRIKLGFTQADVGLALGTLYGNVFSQTTICRFEALQVSFKNMCKLKPLLNKWLEEADSS [L55V] reads -0.573 ± 0.039; that for EDTPTSDDLEQFAKQFKQRRIKLGFTQADVGLALGTLYGNVFSQTTICRFEALQYSFKNMCKLKPLLNKWLEEADSS [L55Y], -0.285 ± 0.062. Next, EDTPTSDDLEQFAKQFKQRRIKLGFTQADVGLALGTLYGNVFSQTTICRFEALQLSFKNCCKLKPLLNKWLEEADSS [M60C]: -0.386 ± 0.074; EDTPTSDDLEQFAKQFKQRRIKLGFTQADVGLALGTLYGNVFSQTTICRFEALQLSFKNACKLKPLLNKWLEEADSS [M60A]: -0.168 ± 0.035. Next, EDTPTSDDLEQFAKQFKQRRIKLGFTQADVGLALGTLYGNVFSQTTICRFEALQLSSKNMCKLKPLLNKWLEEADSS [F57S]: -0.053 ± 0.033; EDTPTSDDLEQFAKQFKQRRIKLGFTQADVGLALGTLYGNVFSQTTICRFEALQLSYKNMCKLKPLLNKWLEEADSS [F57Y]: 0.056 ± 0.11; EDTPTSDDLEQFAKQFKQRRIKLGFTQADVGLALGTLYGNVFSQTTICRFEALQLSIKNMCKLKPLLNKWLEEADSS [F57I]: -0.049 ± 0.063. In the case of EDTPTSDDLEQFAKQFKQRRIKLGFTQADVGLALGTLYGNVFSQTTICRFEALQLSEKNMCKLKPLLNKWLEEADSS [F57E], the abundance fitness is -0.071 ± 0.034. Next, EDTPTSDDLEQFAKQFKQRRIKLGFTQADVGLALGTLYGNVFSQTTICRFEALQLSRKNMCKLKPLLNKWLEEADSS [F57R]: 0.02 ± 0.025; EDTPTSDDLEQFAKQFKQRRIKLGFTQADVGLALGTLYGNVFSQTTICRFEALQLSTKNMCKLKPLLNKWLEEADSS [F57T]: 0.01 ± 0.036. Next, EDTPTSDDLEQFAKQFKQRRIKLGFTQADVGLALGTLYGNVFSQTTICRFEALQLSGKNMCKLKPLLNKWLEEADSS [F57G]: -0.246 ± 0.028; EDTPTSDDLEQFAKQFKQRRIKLGFTQADVGLALGTLYGNVFSQTTICRFEALQLSHKNMCKLKPLLNKWLEEADSS [F57H]: -0.015 ± 0.06; EDTPTSDDLEQFAKQFKQRRIKLGFTQADVGLALGTLYGNVFSQTTICRFEALQLSWKNMCKLKPLLNKWLEEADSS [F57W]: -0.169 ± 0.031. For the variant EDTPTSDDLEQFAKQFKQRRIKLGFTQADVGLALGTLYGNVFSQTTICRFEALQLSNKNMCKLKPLLNKWLEEADSS [F57N], the abundance fitness is 0.031 ± 0.063. Regarding EDTPTSDDLEQFAKQFKQRRIKLGFTQADVGLALGTLYGNVFSQTTICRFEALQLSVKNMCKLKPLLNKWLEEADSS [F57V], the abundance fitness was -0.033 ± 0.028.

For the variant EDTPTSDDLEQFAKQFKQRRIKLGFTQADVGLALGTLYGNVFSQTTICRFEALQLSMKNMCKLKPLLNKWLEEADSS [F57M], the abundance fitness was -0.046 ± 0.039. Next, EDTPTSDDLEQFAKQFKQRRIKLGFTQADVGLALGTLYGNVFSQTTICRFEALQLSCKNMCKLKPLLNKWLEEADSS [F57C]: -0.516 ± 0.068. Take EDTPTSDDLEQFAKQFKQRRIKLGFTQADVGLALGTLYGNVFSQTTICRFEALQLSKKNMCKLKPLLNKWLEEADSS [F57K]: the abundance fitness was 0.026 ± 0.042. The result for EDTPTSDDLEQFAKQFKQRRIKLGFTQADVGLALGTLYGNVFSQTTICRFEALQLSQKNMCKLKPLLNKWLEEADSS [F57Q] reads -0.022 ± 0.042; that for EDTPTSDDLEQFAKQFKQRRIKLGFTQADVGLALGTLYGNVFSQTTICRFEALQLSDKNMCKLKPLLNKWLEEADSS [F57D], -0.105 ± 0.066; that for EDTPTSDDLEQFAKQFKQRRIKLGFTQADVGLALGTLYGNVFSQTTICRFEALQLSLKNMCKLKPLLNKWLEEADSS [F57L], -0.077 ± 0.03.

EDTPTSDDLEQFAKQFKQRRIKLGFTQADVGLALGTLYGNVFSQTTICRFEALQLSPKNMCKLKPLLNKWLEEADSS [F57P]: the abundance fitness is -0.063 ± 0.046.
